Reference: US6723697B2, “IL-16 antagonists” (Research Corporation Technologies, Inc., priority 1999, dated 2004)

Key:
[1] = target: T1, rIL-16 / GST-murine D3D4 fusion protein (Mus musculus, UniProt O54824); experiment: in vitro binding of 35S-labeled murine rIL-16 to GST-murine D3D4 fusion protein; conditions: each peptide 10^-5 M, 10 ug/ml
T1 construct: murine IL-16 cDNA construct in pET-16b expressing the C-terminal 119 amino acids of IL-16; polyhistidine (pET-16b vector); made in house; host or cells: IL-16: coupled in vitro transcription-translation (TNT T7, Promega); GST-D3D4: E. coli, vector pGEX-5X.1
T1 sequence (O54824 1205-1322 limits assumed): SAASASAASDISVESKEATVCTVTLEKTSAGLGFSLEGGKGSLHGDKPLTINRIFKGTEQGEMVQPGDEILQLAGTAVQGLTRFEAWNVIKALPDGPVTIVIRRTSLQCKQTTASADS
Procedure: Complexes were isolated by centrifugation, then bound rIL-16 was released by boiling in SDS-PAGE buffer, resolved by SDS-PAGE, and detected by autoradiography. Specificity of the interaction between rIL-16 and D3D4 was assessed by competition with an excess of unlabeled rIL-16. ^35S-labeled rIL-16 incubated with GST (lane 1); ^35S-labeled rIL-16 incubated with GST-D3D4 (lane 2); ^35S-labeled rIL-16 plus excess unlabelled rIL-16 incubated with GST-D3D4 (lane 3); ^35S-labeled rIL-16 plus10 ug/ml peptide A (lane 4); ^35S-labeled rIL-16 plus 10 ug/ml peptide B (lane 5); ^35S-labeled rIL-16 plus 10 ug/ml peptide C (lane 6); ); ^35S-labeled rIL-16 plus 10 ug/ml peptide A and peptide B (lane 7). The arrow indicates the position of IL-16 on the gel. The identity of this band was re-confirmed by immunoblotting with anti-IL-16 antibody.
Radiolabeled murine IL-16 was prepared by in vitro translation and transcription (TNT T7, Promega) of a murine IL-16 cDNA construct in pET-16b expressing the C-terminal 119 amino acids of IL-16. Each coupled transcription-translation reaction was conducted in medium supplemented with [^35S]methionine according to the manufacturer's instructions.
A glutathione-S-transferase (GST)-murine D3D4 fusion protein was produced by subcloning the murine D3D4 domain cDNA sequences encoding the CD4 protein open reading frame from Phe^182 to Phe^372 into pGEX-5X.1 (Pharmacia). The GST-D3D4 fusion protein was purified according to the Pharmacia GST-fusion protein purification protocol using glutathione-conjugated Sepharose 4B beads in the presence of 2 mM dTT. […]
To investigate IL-16 interaction with the D3D4 of CD4, the GST-D3D4 fusion protein, or GST alone, was bound to the glutathione-conjugated Sepharose 4B beads. […] The GST-D3D4 or GST proteins were released from the beads by boiling in SDS gel loading buffer, and the supernatant was analyzed by 12% SDS-polyacrylamide gel electrophoresis (SDS-PAGE). The presence of ^35S-labeled mrIL16 was detected by autoradiography of the dried gel. […]

rIL-16 = target: T2, rIL-16 (Mus musculus, UniProt O54824); experiment: IL-2R (CD25) induction on rIL-16-stimulated murine splenocytes, flow cytometry; type: cell-based; conditions: for % IL-2R+ CELLS: IL-16 + peptide, concentration not given (10^-6 M or 10^-7 M)
T2 construct: polyhistidine fusion protein containing the 119 C-terminal residues encoded by the previously reported murine cDNA; polyhistidine (cleaved yes); made in house; host or cells: Escherichia coli strain HMS 174, vector pET16b
T2 sequence (O54824 1204-1322): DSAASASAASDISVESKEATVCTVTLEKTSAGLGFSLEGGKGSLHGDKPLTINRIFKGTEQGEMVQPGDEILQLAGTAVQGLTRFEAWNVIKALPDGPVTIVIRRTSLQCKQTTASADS
Procedure: Induction of IL-2R (CD25) on rIL-16-stimulated murine splenocytes was detected by staining with FITC-conjugated anti-mouse IL-2R Ab (PharMingen). Cells were fixed with 10% formalin and stored at 4° C. in the dark before analysis with a Becton Dickinson FACScan 440 flow cytometer. The % IL-2R^+ cells was determined by subtracting the % isotype control positive from the total % positive events.
Peptides A (SEQ ID NO:15) and C (SEQ ID NO:19) were inhibitory at 10^−7 M, but not 10^−6 M. The negative control peptide D (SEQ ID NO:20) (10^−6 M) had no effect on rIL-16-stimulated IL-2R expression.
Murine splenocytes were incubated in control buffer, rIL-16 alone, or rIL-16 plus the indicated peptide. IL-2R expression was determined by flow cytometry using FITC-conjugated anti-IL-2R antibody. The % IL-2R^+ was determined by subtracting the FITC-conjugated isotype control antibody binding from the FITC-conjugated anti-IL-2R antibody binding. Isotype control antibody binding ranged from 1% to 4%.

murine rIL-16 = target: T3, murine rIL-16 (Mus musculus, UniProt O54824); experiment: murine rIL-16-stimulated murine splenocyte migration, modified Boyden chamber; type: cell-based; conditions: rIL-16 10^-9 M; for inhibition of rIL-16-induced splenocyte migration: peptide 10^-6 M; for IL-16-inhibitory activity (block of murine rIL-16-stimulated murine splenocyte migration): peptide concentration not given
T3 construct: polyhistidine fusion protein containing the 119 C-terminal residues encoded by the previously reported murine cDNA; polyhistidine (cleaved yes); made in house; host or cells: Escherichia coli strain HMS 174, vector pET16b
T3 sequence (O54824 1204-1322): T2 sequence (O54824 1204-1322)
Procedure: Cell migration was assessed using a modified Boyden chamber. […] Cell migration is expressed as the mean % control migration.
Results from multiple experiments were analyzed using Student's t test for paired variables, and Tukey's test for multiple variables. A P value<0.05 was considered significant.
Peptide B (aa 341-352) includes the sequence WQCLLS (residues 344-349, SEQ ID NO:4) which is 100% conserved in all the species examined. Peptide A (aa 327-338) and peptide C (aa 351-362) correspond to the N-terminal and C-terminal flanks of peptide B, respectively. A random scrambled 12-residue peptide (LSKQKMVSREGT) designated peptide D (SEQ ID NO:20) was used a negative control for nonspecific effects of peptide administration on splenocyte motility. Criteria for the design of peptide D included overall hydrophilicity, neutral charge and no cysteine residues (to prevent possible dimer formation).
Murine spleens were harvested from healthy 8-week male BALB/c mice (Jackson Laboratory). Splenocytes were isolated by grinding spleens between fiysted slides in M199 culture medium (M. A. Bioproducts), supplemented with 0.4% bovine serum albumin, 22 mM HEPES buffer, 100 with U/ml of penicillin, 100 μg/ml streptomycin (M199-HPS). Cells were washed and erytbrocytes were lysed in Gey's solution. Splenocytes were washed twice in M199, and resuspended to a final concentration of 2×10^6 cells/ml in RPMI1640 medium (BioWhittaker) supplemented with 10% FBS, 100 U/ml of penicillin and 100 μg/ml of streptomycin. By flow cytometry, 25% of the isolated splenocytes within the lymphocyte-cloud were CD4^+.
Recombinant murine IL-16 was produced in Escherichia coli (strain HMS 174; Novagen) as a polyhistidine fusion protein containing the 119 C-terminal residues encoded by the previously reported murine cDNA (Keane et al., (1998) J. Immunol. 160: 5945-5954), using the bacterial expression vector pET16b (Novagen). The recombinant product corresponds to the secreted form of natural murine IL-16 following cleavage by caspase-3 (Zhang et al. (1998) J. Biol. Chem. 273:1144-1149). The rIL-16 was purified by metal chelation chromatography, and the polyhistidine tag was cleaved with factor Xa (New England Biolabs).

IL-16 = target: T4, IL-16 (Mus musculus, UniProt O54824); experiment: IL-16-induced migration of human T-cells; type: cell-based; conditions: for effect on IL-16-induced migration of human T-cells: any concentration; for inhibition of IL-16-mediated biological activity (migration of human T-cells): concentration not given
T4 construct: polyhistidine fusion protein containing the 119 C-terminal residues encoded by the previously reported murine cDNA; polyhistidine (cleaved yes); made in house
T4 sequence (O54824 1204-1322): T2 sequence (O54824 1204-1322)

HIV-1 gp120 = HIV-1 gp120 (Human immunodeficiency virus type 1 group M subtype B, UniProt P04578); conditions: gp120 5 μg/ml, co-incubation
anti-CD4 antibody (OKT4) = experiment: OKT4-induced migration of T-cells; type: cell-based; conditions: OKT4 1 μg/ml, co-incubation
[2] = first line of the peptide's pair
[3] = second line of the peptide's pair

Row | Substance | IL-16 binding to GST-D3D4 in the presence of peptide [1] | % IL-2R+ CELLS (rIL-16; [2]) [%] | % IL-2R+ CELLS (rIL-16; [3]) [%] | inhibition of IL-16-stimulated induction of IL-2R (rIL-16; peptide 10^-7 M) | IL-16-inhibitory activity (block of murine rIL-16-stimulated murine splenocyte migration) (murine rIL-16) | other results
1 | GDKVKMDSRIQV [peptide C, 12-residue peptide, aa 351-362 of mouse CD4 D4] | failed to reduce IL-16 binding | 20 | 35 | inhibitory | IL-16-inhibitory activity | inhibition of rIL-16-induced splenocyte migration (murine rIL-16): inhibit
2 | KVSKREKAVWVLNPEA (OTHER INFORMATION: Description of Artificial Sequence:IL-16 antagonist peptide) [16-mer of human CD4 D4] | – | – | – | – | – | effect on IL-16-induced migration of human T-cells (IL-16): failed to effect
3 | GMWQCLLSDSGQVLLE (OTHER INFORMATION: Description of Artificial Sequence:IL-16 antagonist peptide) [aa 343-358 of human CD4 D4] | – | – | – | – | – | concentration at which maximal inhibition was achieved (IL-16; dose curve, IL-16-induced migration of human T-cells): ≥ 10 µg/mL; block of IL-16-induced migration of human T-cells (IL-16; peptide 10^-10 M): blocked all
4 | DSGQVLLE (OTHER INFORMATION: Description of Artificial Sequence:IL-16 antagonist peptide) [aa 351-358 of human CD4] | – | – | – | – | – | inhibition of IL-16-mediated biological activity (migration of human T-cells) (IL-16): failed to inhibit
5 | TSPKLMLSLKLENKEA (OTHER INFORMATION: Description of Artificial Sequence:IL-16 antagonist peptide) [16-mer of human CD4 D4] | – | – | – | – | – | effect on IL-16-induced migration of human T-cells (IL-16): failed to effect
6 | GMWQCLLS (OTHER INFORMATION: Description of Artificial Sequence:IL-16 antagonist peptide) [aa 343-350 of human CD4] | – | – | – | – | – | inhibition of IL-16-mediated biological activity (migration of human T-cells) (IL-16): inhibited all
7 | CLLS (OTHER INFORMATION: Description of Artificial Sequence:IL-16 antagonist peptide) [aa 347-350 of human CD4 D4] | – | – | – | – | – | effect on HIV-1 gp120-induced migration (HIV-1 gp120): unaffected; IL-16-induced migration of human T-cells blocked (IL-16; co-incubation of IL-16 and peptide): approximately 90%; effect on anti-CD4 antibody OKT4-induced migration (anti-CD4 antibody (OKT4)): unaffected

The next lines start with results.

Row | IL-16 binding to GST-D3D4 in the presence of peptide [1] | % IL-2R+ CELLS (rIL-16; [2]) [%] | % IL-2R+ CELLS (rIL-16; [3]) [%] | inhibition of IL-16-stimulated induction of IL-2R (rIL-16; peptide 10^-7 M) | IL-16-inhibitory activity (block of murine rIL-16-stimulated murine splenocyte migration) (murine rIL-16) | Substance | other results
8 | reduced to background | 21 | 37 | inhibitory | IL-16-inhibitory activity | VSEEQKVVQVVA (OTHER INFORMATION: Description of Artificial Sequence:IL-16 antagonist peptide) [peptide A, 12-residue peptide, aa 327-338 of mouse CD4 D4] | inhibition of rIL-16-induced splenocyte migration (murine rIL-16): inhibited
9 | reduced to background | 22 | 26 | completely inhibited | IL-16-inhibitory activity | TGLWQCLLSEGD (OTHER INFORMATION: Description of Artificial Sequence:IL-16 antagonist peptide) [peptide B, 12-residue peptide, aa 341-352 of mouse CD4 D4] | inhibition of IL-16-stimulated induction of IL-2R (rIL-16; peptide 10^-6 M): completely inhibited
